According to patent publication US20190359687A1 (Bayer, published 2019):
Substitutions are numbered along the chain they refer to. In names and notes the source's numbering stands.

Tests used:
[1] = biological target: T1, purified human glycophorin A protein (Sigma, cat # G5017) (human, UniProt P02724 20-150); assay: ELISA, native hGPA
T1 construct: mature; also called Sigma hGPA; Sigma GPA
T1 sequence (looked up): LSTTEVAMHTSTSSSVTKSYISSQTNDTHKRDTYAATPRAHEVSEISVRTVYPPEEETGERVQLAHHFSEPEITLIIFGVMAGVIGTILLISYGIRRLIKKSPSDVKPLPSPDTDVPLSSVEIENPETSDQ

[2] = biological target: T2, human glycophorin A in the red blood cell membrane (human, UniProt P02724 20-150); assay: SPR single cycle kinetics, human RBC membranes on L1 sensor; single cycle kinetics, FIG. 6
T2 construct: whole, on cells; used for intact RBC, isolated RBC membranes and transfected cells; the assay field tells which; also called GPA; hGPA
T2 sequence (looked up): T1 sequence (looked up)
Description: (§1) Kinetic analysis of the antibody binding to human red blood cell membranes was also performed using surface plasmon resonance (SPR) using a Biacore instrument. In this assay membranes prepared from human red blood cells were attached to a L1 sensor matrix and antibodies were flowed over the RBC membranes.

[3] = biological target: T2, human glycophorin A in the red blood …; assay: ELISA, human RBC membranes;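 also: antibodies bound to isolated human red blood cell membrane ghosts coated on 96-well plates, tested 1.5 h at room temperature, bound antibody quantified with a detection antibody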
Description: In order to evaluate binding of antibodies to GPA in the native context of the red blood cell membrane we made use of isolated red blood cell membranes, also called red blood cells ghosts. These membranes are prepared by first isolating red blood cells from citrated whole blood. Citrated whole blood is layered on to Ficol and centrifuged at low speed for 20 minutes to pellet the red blood cells. The supernatant containing plasma and other blood cells is discarded and the red blood cell pellet is subsequently washed 3 times in 10 cell volumes of phosphate buffered saline (PBS). A 10 ml pellet of purified red blood cells is resuspended in 30 ml of cold low osmorality 20 mM phosphate buffer (pH7.4) and incubated for 30 mins to break open the RBC. After Centrifugation at 10,000 rpm for 30 min at 5° C. the hemoglobin containing supernatant is discarded. To the membrane pellet another 30 ml of 20 mM phosphate buffer is added and the sample centrifuged again at 10,000 rpm for 30 min at 5° C. to pellet the membrane fraction. This wash and centrifugation step is repeated another 4 times. The red blood cell membranes are then resuspended in 20 mL of PBS to achieve an equivalent of approximately 2.5E9 cells/mL and stored frozen at −20° C. Binding of antibodies to RBC ghost can be measured by ELISA in which the RBC ghost suspension (5×10⁶ in 100 ul PBS) was added to each well of flat bottom 96-well ELISA microtiter plates (2HB, Immunolon) and the plates incubated overnight at 4° C. The plates were blocked with Starting blocking buffer (Thermo Fisher) for 2 hours at room temperature (RT). Antibodies or other test molecules were added to each well and incubated for 1.5 hours at RT. After 4 washes 100 ul of an appropriate detection antibody was added to each well and incubated for 1 hour at RT. After 4 washes the detection antibody was measured using appropriate detection reagents.

[4] = biological target: T3, recombinant human GPA ectodomain (human, UniProt P02724 20-91); assay: ELISA, rec hGPA ectodomain
T3 construct: also called recombinant hGPA ECD; recGPA
T3 sequence: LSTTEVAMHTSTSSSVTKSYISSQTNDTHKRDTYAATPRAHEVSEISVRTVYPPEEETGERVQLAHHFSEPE

[5] = biological target: T4, Cynomolgus monkey glycophorin A on Cynomolgus monkey red blood cells (Cynomolgus monkey); assay: FACS, Cyno RBC
T4 construct: whole, on cells; also called Cyno RBC; Cyno GPA
Description: (§2) Hybridomas were generated from the spleen cells of these mice and these hybriomas were screened first by fluorescence activated cell sorting (FACS) against isolated human and monkey (Cynomolgus monkey and Rhesus monkey) red blood cells (RBC) and then by ELISA against purified human glycophorin A protein (GPA). Isolated RBC were prepared from whole blood from normal human, cynomolgus monkey, and beagle dog, were anticoagulant with sodium heparin (Bioreclamation). 2-3 mL of whole blood was loaded gently on the top of 3 mL Ficoll Plus (Sigma Aldrich) then centrifuged at 500 g for 20 min at room temperature (RT). The RBC pellets were washed 3 times with 10 mL of PBS, and centrifuge 400 g for 10 min at RT. RBC pellets were re-suspended in PBS at the same total volume as the original blood volume to achieve the same RBC cell density as in whole blood and stored at 4° C. Purified human glycophorin A protein was obtained from Sigma Aldrich and coated on ELISA plates at 2 ug/ml. Binding of antibodies to human GPA was detected using appropriate secondary antibodies using methods well known in the art.

dog red blood cells = biological target: T5, dog red blood cells (dog); assay: FACS, dog RBC
T5 construct: also called dog RBC
Description: as §2

[6] = biological target: T1, purified human glycophorin A protein …; assay: ELISA, hGPA
Description: as §2

[7] = biological target: T1, purified human glycophorin A protein …; assay: ELISA, purified IgG
Description: The “Sigma GPA” is a crude preparation of human GPA extracted from human red blood cells and is therefore representative of the highly glycosylated form of the native protein.
EC 50 values were determined from a dilution curve of the antibody. Sigma GPA is partially purified GPA extracted from human red blood cells and purchased from Sigma Chemical Company (cat # G5017), asialo hGPA is human GPA that was desialylated and ECD is the recombinantly expressed ectodomain which is the extracellular portion of GPA.

[8] = biological target: T2, human glycophorin A in the red blood …; assay: FACS, hu RBC
[9] = biological target: T3, recombinant human GPA ectodomain; assay: SPR, IgG; SPR, IgG form, recombinant human GPA ectodomain
[10] = biological target: T6, human glycophorin A on human red blood cells or red blood cell membranes (human, UniProt P02724 20-150); assay: Fab on intact human RBC, unbound Fab by ELISA; 120 min after 200-fold dilution
T6 construct: whole, on cells; also called hRBC; human RBC membranes
T6 sequence (looked up): T1 sequence (looked up)

[11] = biological target: T6, human glycophorin A on human red blood …; assay: Fab on intact human RBC, unbound Fab by ELISA; 0 min after 200-fold dilution
Description: (§3) The binding of affinity matured Fab antibodies to intact human RBC was also measured. Human RBC were isolated from fresh anti-coagulated normal human blood by centrifugation through a ficol gradient and washing in PBS buffer. RBC diluted to 1/10th of normal hematocrit were incubated with purified Fab antibodies at a final concentration of 7 ug/ml for 1 hour at room temperature on a rotating shaker after which a sample was taken and the RBC were pelleted by centrifugation and the supernatant was collected. The remaining RBC suspension was diluted 200-fold in PBS buffer and incubated for a total of 2 hours at room temperature on a rotating shaker and samples were removed at 0, 5 min, 20 min, 1 h and 2 h and the RBC pelleted and the supernatant collected. The amount of Fab in the supernatants was then measured using an ELISA assay and the results used to calculate the percentage of the input Fab that was bound to the RBC. […] The percentage that remains bound after 200-fold dilution of the RBC suspension is an indication of the overall strength of the binding to human RBC.

[12] = biological target: T6, human glycophorin A on human red blood …; assay: Fab on intact human RBC, unbound Fab by ELISA; 60 min after 200-fold dilution
[13] = biological target: T7, Cynomolgus monkey glycophorin A on Cynomolgus monkey red blood cells or red blood cell membranes (Cynomolgus monkey); assay: Fab on intact cyno RBC, unbound Fab by ELISA; 5 min after 200-fold dilution
T7 construct: whole, on cells; also called Cyno RBC; Cynomolgus monkey RBC membranes
Description: (§4) The binding of affinity matured Fab antibodies to intact Cynomolgus monkey RBC was measured. Cynomolgus monkey RBC were isolated from fresh anti-coagulated blood by centrifugation through a ficol gradient and washing in PBS buffer. RBC diluted to 1/10th of normal hematocrit were incubated with the Fab at a final concentration of 7 ug/ml for 1 hour at room temperature on a rotating shaker after which a sample was taken and the RBC were pelleted by centrifugation and the supernatant was collected. The remaining RBC suspension was diluted 200-fold in PBS buffer and incubated for a total of 2 hours at room temperature on a rotating shaker and samples were removed at 0, 5 min, 20 min, 1 h and 2 h and the RBC pelleted and the supernatant collected. […] The amount of Fab in the supernatants was then measured using an ELISA assay and the results used to calculate the percentage of the input Fab that was bound to the RBC.

[14] = biological target: T7, Cynomolgus monkey glycophorin A on …; assay: Fab on intact cyno RBC, unbound Fab by ELISA; 120 min after 200-fold dilution
Description: as §4

[15] = biological target: T6, human glycophorin A on human red blood …; assay: SPR (Biacore), Fab on human RBC membranes; * not accurate, instrument limit;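 as to kon: human RBC membranes captured on an L1 sensor chip, Fab fragments passed over as analyte, binding kinetics read by surface plasmon resonance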
Description: as §1
(§5) The binding kinetics of the affinity matured Fab antibodies was also measured.

[16] = biological target: T6, human glycophorin A on human red blood …; assay: Fab on intact human RBC, unbound Fab by ELISA; 5 min after 200-fold dilution
Description: as §3

[17] = biological target: T6, human glycophorin A on human red blood …; assay: Fab on intact human RBC, unbound Fab by ELISA; 20 min after 200-fold dilution
[18] = biological target: T6, human glycophorin A on human red blood …; assay: Fab 7 ug/ml on intact human RBC, unbound Fab by ELISA; pre-dilution
[19] = biological target: T7, Cynomolgus monkey glycophorin A on …; assay: Fab 7 ug/ml on intact cyno RBC, unbound Fab by ELISA; pre-dilution
Description: as §4

[20] = biological target: T6, human glycophorin A on human red blood …; assay: SPR (Biacore), Fab on human RBC membranes;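 also: human RBC membranes captured on an L1 sensor chip, Fab fragments passed over as analyte, binding kinetics read by surface plasmon resonance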
Description: as §1, §5

[21] = biological target: T6, human glycophorin A on human red blood …; assay: SPR (Biacore), Fab on human RBC membranes; T½ = 0.69/kd; * not accurate;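 as to kon: human RBC membranes captured on an L1 sensor chip, Fab fragments passed over as analyte, binding kinetics read by surface plasmon resonance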
Description: as §1, §5

[22] = biological target: T7, Cynomolgus monkey glycophorin A on …; assay: Fab on intact cyno RBC, unbound Fab by ELISA; 60 min after 200-fold dilution
[23] = biological target: T7, Cynomolgus monkey glycophorin A on …; assay: Fab on intact cyno RBC, unbound Fab by ELISA; 20 min after 200-fold dilution
Description: as §4

[24] = biological target: T7, Cynomolgus monkey glycophorin A on …; assay: Fab on intact cyno RBC, unbound Fab by ELISA; 0 min after 200-fold dilution
Description: as §4

B1: TPP-4935 (Fab, V domains shown)
VH: EVQLVQSGAEVKKPGASVKVSCKASGYTFTTYTIHWVRQAPGQGLEWIGYINPSSDYTRYNPKFKDRVTLTTDKSTSTAYMELRSLRSDDTAVYYCQTGTRDYWGQGTTVTVSS
VL: DIQLTQSPSFLSASVGDRVTITCSAASSVSYIYWFQQKPGKAPKLLIYSTSTLPSGVPSRFSGSGSGTEYTLTISSLQPEDFATYYCHQRNSFPFTFGQGTKLEIKR
notes: also called Parental; hu6C12-24 parental Fab
binding by ELISA relative to parental [1]: 1 | Kd [2]: 130 nM | binding by ELISA relative to parental [3]: 0.99

B2: TPP-5340 (Fab, V domains shown)
VH: B1 VH
VL: B1 VL with S24R
notes: also called VL: (S24R)
binding by ELISA relative to parental [1]: 1.17 | Kd [2]: 25 nM | binding by ELISA relative to parental [4]: 1.23 | binding by ELISA relative to parental [3]: 0.9

B3: TPP-5341 (Fab, V domains shown)
VH: B1 VH
VL: B1 VL with A26S
notes: also called VL: (A26S)
binding by ELISA relative to parental [1]: 1.03 | Kd [2]: 34 nM | binding by ELISA relative to parental [4]: 1.19 | binding by ELISA relative to parental [3]: 0.82

B4: 7G4E9/A8 (antibody, V domains shown)
VH: QVQLKESGPGLVAPSQSLSITCTVSGFSLTRFGISWVRQPPGKGLEWMGVIWGDGSTDYHSALISRLSITKDNSKSQVFFRLNSLQSDDSATYYCARSFGMDYWGQGTSVTVSS
VL: NIMMTQSPSSLAVSAGEKVTMSCKSSQSILNSSNQKNYLAWYQQKPGQSPKLLIYWASTRESGVPDRFTGSGSGTDFTLTISSVQAEDLAVYYCHQYFSSRTFGGGTKLEIK
notes: as m8
FACS signal [5]: 8 relative flourescence units | FACS signal (dog red blood cells): 0.98 relative flourescence units | EC50 [6]: 0.071 nM | EC50 [7]: 0.33 nM | FACS signal [8]: 2830 relative flourescence units | Kd [9]: 5.92 nM | koff [9]: 0.00046 s⁻¹ | kon [9]: 77700 M⁻¹ s⁻¹ | t½ [9]: 0.0174 days

B5: TPP-7783, affinity matured 6C12 Fab (Fab, V domains shown)
VH: B1 VH with T33A, I48M, D56G, D66H, L70M, T72R, Q97W
VL: DIQLTQSPSFLSASVGDRVTITCRASSSVRYIYWFQQKPGKAPKLLIYATSFRRSGVPSRFSGSGSGTEYTLTISSLQPEDFATYYCHQRNSFPYTFGQGTKLEIK
notes: Tested as Fab
percentage of input antibody bound [10]: 85% | percentage of input antibody bound [11]: 87% | percentage of input antibody bound [12]: 84% | percentage of input antibody bound [13]: 62% | percentage of input antibody bound [14]: 56% | Kd [15]: 0.000904 nM | koff [15]: 2.42e-07 s⁻¹ | percentage of input antibody bound [16]: 86% | percentage of input antibody bound [17]: 86% | percentage of input antibody bound [18]: 90% | percentage of input antibody bound [19]: 72% | kon [20]: 267000 M⁻¹ s⁻¹ | Estimated T½ [21]: 33 days | percentage of input antibody bound [22]: 64% | percentage of input antibody bound [23]: 62% | percentage of input antibody bound [24]: 60%
